Assay [1] has as its target murine CD4 on splenocytes (murine) (UniProt P06332). The experiment in a line: Pipette tip cell affinity chromatography on Strep-Tactin agarose functionalized with the GK1.5 Fab, murine splenocytes; starting sample 21,7% CD4+ (a) [b].
For assay [2] the target is unchanged. Kind of assay: Pipette tip cell affinity chromatography on Strep-Tactin agarose functionalized with the GK1.5 Fab, murine splenocytes; starting sample 21,7% CD4+ (a) [c].
Assay [3] has the same target. Kind of assay: Pipette tip cell affinity chromatography on Strep-Tactin agarose functionalized with the GK1.5 Fab, murine splenocytes; starting sample 19,6% CD3+CD4+ (a) [b].
For assay [4] the target is unchanged. Kind of assay: Pipette tip cell affinity chromatography on Strep-Tactin agarose functionalized with the GK1.5 Fab, murine splenocytes; starting sample 19,6% CD3+CD4+ (a) [c].
Assay [5] addresses human CD4 on CD4+ cells of PBMC or whole blood (human) (UniProt P01730). The experiment in a line: Pipette tip cell affinity chromatography on Strep-Tactin agarose functionalized with the m13B8.2 Fab, human PBMC; starting sample 52,3% CD4+ (a) [b].
Assay [6] shares this target. The experiment in a line: Pipette tip cell affinity chromatography on Strep-Tactin agarose functionalized with the m13B8.2 Fab, human PBMC; starting sample 52,3% CD4+ (a) [c].
For assay [7] the target is unchanged. The experiment in a line: Pipette tip cell affinity chromatography on Strep-Tactin agarose functionalized with the m13B8.2 Fab, human whole blood; starting sample 1,20% CD4+ (a) [b].
The target is the same in assay [8]. Kind of assay: Pipette tip cell affinity chromatography on Strep-Tactin agarose functionalized with the m13B8.2 Fab, human whole blood; starting sample 1,20% CD4+ (a) [c].
The target of assay [9] is human CD8 on CD8+ T cells of PBMC or whole blood (human) (UniProt P01732). The experiment in a line: cell affinity chromatography: Fab on Strep-Tactin Sephadex-50, human PBMC, flow cytometry of start and flow-through.
Sequence of UniProt P01732 (P01732 22-235): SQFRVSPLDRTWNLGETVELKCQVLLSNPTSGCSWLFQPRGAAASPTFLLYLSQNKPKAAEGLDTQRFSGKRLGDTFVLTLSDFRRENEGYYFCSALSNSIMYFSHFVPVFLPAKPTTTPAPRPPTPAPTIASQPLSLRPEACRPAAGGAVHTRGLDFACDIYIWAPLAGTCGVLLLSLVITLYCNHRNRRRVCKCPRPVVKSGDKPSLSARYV
Assay [10] has the same target. The experiment in a line: cell affinity chromatography: PBMC pre-incubated with Fab, Superflow Strep-Tactin column, FACS of start and wash fractions.
Assay [11] shares this target. Kind of assay: Cell affinity chromatography on Strep-Tactin agarose functionalized with the anti-CD8 Fab, human PBMC; starting sample 24,1% CD8+ (a) [b].
Assay [12] shares this target. Kind of assay: Cell affinity chromatography on Strep-Tactin agarose functionalized with the anti-CD8 Fab, human PBMC; starting sample 24,1% CD8+ (a) [c].
Assay [13] shares this target. The experiment in a line: Cell affinity chromatography on Strep-Tactin agarose functionalized with the anti-CD8 Fab, human whole blood; starting sample 0,041% CD8+ (a) [b].
The target is the same in assay [14]. The experiment in a line: Cell affinity chromatography on Strep-Tactin agarose functionalized with the anti-CD8 Fab, human whole blood; starting sample 0,041% CD8+ (a) [c].
Assay [15] has the same target. The experiment in a line: Flow cytometry of PBMC fractions from a Sephadex G50/Strep-Tactin column loaded with the CD8 Fab; the same marker reads 28 before selection (diagram A).

Sequence of UniProt P06332 (P06332 27-457): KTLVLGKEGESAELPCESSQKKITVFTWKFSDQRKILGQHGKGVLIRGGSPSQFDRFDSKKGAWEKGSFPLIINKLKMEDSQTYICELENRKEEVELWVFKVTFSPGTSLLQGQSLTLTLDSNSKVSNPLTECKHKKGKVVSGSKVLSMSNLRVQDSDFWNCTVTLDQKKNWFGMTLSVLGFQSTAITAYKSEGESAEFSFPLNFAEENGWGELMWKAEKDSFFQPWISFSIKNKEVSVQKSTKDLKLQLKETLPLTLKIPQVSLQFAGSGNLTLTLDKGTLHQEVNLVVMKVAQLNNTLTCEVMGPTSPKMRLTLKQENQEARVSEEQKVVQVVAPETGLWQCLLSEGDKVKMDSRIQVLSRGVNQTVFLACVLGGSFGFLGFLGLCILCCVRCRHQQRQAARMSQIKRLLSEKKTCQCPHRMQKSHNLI

“anti-CD4 Fab fragment with the wild-type variable domains of the CD4 binding antibody GK1.5 and two streptavidin binding modules at the C-terminus of the heavy chain” came in with a % CD4+ cells in the CD4-negative wash fraction in assay [1] of 2.78%. Further, the % CD4+ cells in the biotin eluate fraction in assay [2] came out at 84.7%. The substance also showed a % CD3+CD4+ cells in the CD4-negative wash fraction in assay [3] of 0.977%. In addition, the % CD3+CD4+ cells in the biotin eluate fraction in [4] was determined as 80.8%.
For the substance “mutant Fab fragment m13B8.2 (variable domains of the CD4 binding murine antibody 13B8.2 with light chain His91Ala and heavy chain Arg53Ala, human CH1 gamma1 and human kappa constant domains, two streptavidin binding modules at the C-terminus of the heavy chain)”, the % CD4+ cells in the CD4-negative wash fraction in [5] turned out to be 5.88%; in assay [7] it was 0.144%. Also, the % CD4+ cells in the biotin eluate fraction in assay [6] came out at 99.4%; in [8], 70.4%.
In [9], “CD8 binding Fab fragment, heavy chain carboxy-terminally fused with a sequential arrangement of two streptavidin binding modules (IBA GmbH, catalogue number 6-8003)” displayed a percent of PBMC that are CD8+ T-cells bound to the column of 12.1% and a percent of the CD8+ T-cells bound to the column of 66%. This substance came in with a percent of CD8+ cells retarded on the column in assay [10] of 77.8%. In addition, in assay [11], the % CD8+ cells in the CD8-negative wash fraction came to 4.83%. In assay [12], this substance gave a % CD8+ cells in the biotin eluate fraction of 88.2%. Further, the % CD8+ cells in the CD8-negative wash fraction in [13] amounted to 0.005%. The substance further gave a % CD8+ cells in the biotin eluate fraction in [14] of 79.8%. In assay [15], this substance returned a % cells in the CD8-positive marker of the CD8 histogram, 1. elution fraction immediately with D-Biotin of 67%; a % cells in the CD8-positive marker of the CD8 histogram, 2. elution fraction after D-Biotin and subsequent washing of 76%; a % cells in the CD8-positive marker of the CD8 histogram, wash through fraction of 10%.
